In experiment [1] the target is T1, rat Nectin-4 (rat, UniProt Q8R007 31-508 (mouse entry)).
T1 construct: Transiently expressed on 293T cells
T1 chain: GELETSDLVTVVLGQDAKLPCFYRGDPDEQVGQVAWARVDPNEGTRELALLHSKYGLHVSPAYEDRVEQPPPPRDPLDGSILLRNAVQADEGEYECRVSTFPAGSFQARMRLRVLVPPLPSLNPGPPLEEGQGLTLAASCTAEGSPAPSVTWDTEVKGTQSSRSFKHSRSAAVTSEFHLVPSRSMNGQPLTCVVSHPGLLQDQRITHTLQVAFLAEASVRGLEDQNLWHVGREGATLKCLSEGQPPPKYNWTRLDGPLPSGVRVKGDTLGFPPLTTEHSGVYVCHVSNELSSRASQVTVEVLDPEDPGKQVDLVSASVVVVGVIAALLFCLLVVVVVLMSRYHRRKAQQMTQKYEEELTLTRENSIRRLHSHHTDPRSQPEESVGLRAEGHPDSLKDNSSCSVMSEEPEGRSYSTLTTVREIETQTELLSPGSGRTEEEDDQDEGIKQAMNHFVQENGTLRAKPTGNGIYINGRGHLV
The experiment can be described thus: flow cytometry, transfected 293T cells; ++ EC50 between 5 nM and 25 nM. How it is done:
(§1) CDNAs encoding Nectin-4 protein from cynomolgus monkey (SEQ ID NO: 62), rat (SEQ ID NO: 63), or mouse (SEQ ID NO: 64) were separately cloned into a pcDNA3.1-based mammalian expression plasmid. The respective plasmids were transfected to human 293T cells in a similar way described in Example 6. The binding EC50 of disclosed human Nectin-4 antibodies to species-specific Nectin-4 transiently expressed on 293T cell surface was measured by flow cytometry.
(In general: A flow cytometer gives signals particle by particle.)

Experiment [2] deals with T2, mouse Nectin-4 (mouse, UniProt Q8R007 31-508).
T2 construct: Transiently expressed on 293T cells; also called murine Nectin-4
T2 sequence: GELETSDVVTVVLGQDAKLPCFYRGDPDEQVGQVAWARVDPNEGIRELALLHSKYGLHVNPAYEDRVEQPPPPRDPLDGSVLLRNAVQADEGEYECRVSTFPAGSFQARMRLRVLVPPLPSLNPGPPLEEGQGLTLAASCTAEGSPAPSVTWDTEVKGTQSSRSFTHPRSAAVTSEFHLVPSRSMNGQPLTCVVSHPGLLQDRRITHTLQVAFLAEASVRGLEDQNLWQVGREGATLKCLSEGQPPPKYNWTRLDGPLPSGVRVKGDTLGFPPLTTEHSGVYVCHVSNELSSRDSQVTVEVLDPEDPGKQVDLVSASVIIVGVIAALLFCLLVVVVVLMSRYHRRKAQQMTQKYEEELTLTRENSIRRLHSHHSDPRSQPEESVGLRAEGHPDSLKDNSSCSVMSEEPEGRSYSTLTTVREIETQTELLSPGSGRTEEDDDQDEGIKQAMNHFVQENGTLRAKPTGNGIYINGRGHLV
The description is as above. The protocol: as §1

Experiment [3] concerns the target T1, rat Nectin-4. The experiment can be described thus: flow cytometry, transfected 293T cells; + EC50 between 25 nM and 133 nM. The protocol:
as §1

The target in experiment [4] is T1, rat Nectin-4. The experiment can be described thus: flow cytometry, transfected 293T cells; +++ EC50 less than 5 nM. How it is done: as §1
Experiment [5] has as its target T2, mouse Nectin-4. The experiment can be described thus: flow cytometry, transfected 293T cells; + EC50 between 25 nM and 133 nM. The protocol: as §1
In experiment [6] the target is T3, full-length human Nectin-4 on cells (human, UniProt Q96NY8 32-510).
T3 construct: the cell is named under assay; also called CHO-Nectin-4 cells; Nectin-4-CHO
T3 sequence: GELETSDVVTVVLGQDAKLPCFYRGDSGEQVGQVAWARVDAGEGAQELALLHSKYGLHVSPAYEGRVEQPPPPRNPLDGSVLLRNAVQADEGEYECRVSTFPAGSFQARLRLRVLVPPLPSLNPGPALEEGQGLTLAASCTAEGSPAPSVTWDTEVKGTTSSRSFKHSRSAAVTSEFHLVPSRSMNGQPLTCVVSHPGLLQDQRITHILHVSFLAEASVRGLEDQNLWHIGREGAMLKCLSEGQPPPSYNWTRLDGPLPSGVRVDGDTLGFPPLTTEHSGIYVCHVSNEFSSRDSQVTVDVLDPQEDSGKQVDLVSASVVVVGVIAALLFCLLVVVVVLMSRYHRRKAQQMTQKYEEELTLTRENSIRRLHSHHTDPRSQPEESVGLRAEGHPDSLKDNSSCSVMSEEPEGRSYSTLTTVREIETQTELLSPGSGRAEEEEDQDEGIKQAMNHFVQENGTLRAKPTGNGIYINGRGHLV
The experiment can be described thus: flow cytometry competition on CHO-Nectin-4 cells; competitor biotinylated human TIGIT; TIGIT as competitor. How it is done: The ability of disclosed Nectin4-specific antibodies to block TIGIT binding to CHO-Nectin-4 cells was assessed by FACS. Briefly, CHO-Nectin-4 cells were incubated with dilutions of the disclosed purified recombinant antibodies. Then, biotinylated human TIGIT protein (SinoBiologic, catalog: 10917-H08H-B, lot: LC13AP0902) was added to the plate. After 30-minute incubation, cells were washed, followed by adding Streptavidin Alexa 647 (1:1000) to the samples. After a 30 minute incubation, the samples were analyzed on a flow cytometry instrument (Intellicyte, IQue plus, Sartorius) for TIGIT blocking activity. The positive control antibody used in this blocking assay is PC2, a Nectin-4 antibody with known blocking activity.

Experiment [7] deals with T3, full-length human Nectin-4 on cells. The experiment can be described thus: flow cytometry competition on CHO-Nectin-4 cells; competitor biotinylated human Nectin-1-His; Nectin-1 as competitor. How it is done: The ability of disclosed Nectin4-specific antibodies to block Nectin-1 binding to Nectin-4 expressing cells (CHO cells transfected with human Nectin-4) was determined by FACS. Briefly, CHO-Nectin-4 cells were incubated with dilutions of the disclosed Nectin-4 purified recombinant antibodies. Then, biotinylated human Nectin-1 with His tag (ACROBiosystems, catalog number: PV1-H5223, lot: 733-38GS1-47, 0.75 ug/ml) was added to the plate. After 30-minute incubation, cells were washed, followed by adding Streptavidin Alexa 647 (1:1000) to the samples. After a 30 minute incubation, the samples were analyzed on a flow cytometry instrument (Intellicyte, IQue plus, Sartorius) for Nectin-1 blocking activity. The positive control antibody used in this blocking assay is a reference antibody (known to be a recombinant Nectin-4 specific antibody, made by Novarock Biotherapeutics, lot: 03042020KD).

Numbering of substitutions follows the chain as printed. Bounds are passed on as bounds.

B1: N4_mAb 2 (antibody, human IgG1, V domains shown)
VH: QVQLKQSGPNLVQPSQSLSITCTVSGFSLTTYGAHWVRQSPGKGLEWLGVIWRGGSTDYNAAFMSRLSITKDNSKSQVFFKMNSLQADDTAIYYCAKIGYDGYAMDNWGQGTSVTVSS
VL: DFQVTQSPASLSASVGETVTITCRTSENIHNYLAWYQQKQGKSPQLLVYNAKTLADGVPSRFSGSGSGTQYSLKINSLQPEDFGTYYCQHFWSSPWTFGGGTKLEIK
notes: Tested as chimera (human IgG1/kappa constants); not shown: human IgG1 constant region (Uniprot P01857); human Kappa light chain constant region (UniProt P01834)
For the molecule B1, the EC50 in experiment [1] and in experiment [2] was 0.005 to 0.025 µM in each case.

B2: N4_mAb 3 (antibody, human IgG1, V domains shown)
VH: EVQLQQSGAELVKPGASVKLSCTVSGFNIKDTYMHWVKQRPEQGLEWIGRIDPANGNTKYDPKFQGKATIIADKASNTAYLQLSSLTSEDAAVYYCAHYYGSSYFAMDCWGQGTSVTVSS
VL: DIVMTQSHKFMSTSVGDRVSITCKASQDVSTAVAWYQQKPGQSPKLLIYWASTRHTGVPDRFTGSGSGTDYTLTISSVQTEDLALYYCQQHYSTPLTFGAGTKLELK
notes: as for B1
Turning to B2, in experiment [3], the EC50 – broadly, the concentration giving half of the maximal effect – fell in the range of 0.025 to 0.133 µM.

B3: N4_mAb 6 (antibody, human IgG1, V domains shown)
VH: QVQLQQSGPELVKPGASVRISCKASGYTFTTYYIHWVKQRPGQGLEWIGWIYPGNVNTKYTENFKDKATLTADKSSSTAYMQLSSLTSEDSAVYFCARGLYYFDFWGQGTTLTVSS
VL: SIVMTQTPKFLLVSAGDRVTITCKASQSVNNDVAWYQQKPGQSPKLLIYYASNRDTGVPDRFTGSGFGTDFTFTISSVQAEDLAVYFCQQDYSSPYTFGGGTKLEIK
notes: Tested as chimera (murine variable regions, human IgG1/kappa constants); not shown: human IgG1 constant region (Uniprot P01857); human Kappa light chain constant region (UniProt P01834)
With B3, the 50% effective concentration (EC50) was < 0.005 µM in experiment [4] and 0.005 to 0.025 µM in experiment [2].

B4: N4_mAb 7 (antibody, human IgG1, V domains shown)
VH: QVQLQQSGPELVKPGASVKMSCKASGYTFTTYYIHWVKQRPGQGLEWIGWIYPGNAGIKSNEKFKGKTTLTADKSSSTAYMLLSSLTSEDSAIYFCARGVYFFDYWGQGTTLTVSS
VL: B3 VL with A34S, Y36F, D55Y, T63S, F67Y, S76T, S77T
notes: as for B3
On to B4, for which the EC50 in experiment [4] is < 0.005 µM; in experiment [2] it was 0.005 to 0.025 µM.

B5: N4_mAb 8 (antibody, human IgG1, V domains shown)
VH: B3 VH with E10V, T31S, T61N, K65R, A79S, L100I, F105Y
VL: B3 VL with S1I, Q38E, F67Y, S77T, Q89H, Y96F, G100S
notes: as for B3
Consider B5, for which the EC50 is < 0.005 µM in experiment [4] and 0.005 to 0.025 µM in experiment [2].

B6: N4_mAb 5 (antibody, human IgG1, V domains shown)
VH: EVQLQQSGPDLVKPGASVKISCKASGYSFTGHYMHWVKQSHGKSLEWIGRVNPNNGGSSYNQKFKDKAILTVDKSSTTAYMELRSLTSEDSAVYYCARDPLGGSYGFAYWGQGTLVTVSA
VL: DIVLTQSPASLAVSLGQRATISCRASQSVTTSSYSYMHWYQQKPGQPPKLLIKYASNLESGVPARFSGSGSGTDFTLNIHPVEEEDTATYYCQHSWEIPYTFGGGTKLEMK
notes: as for B1
As for B6, the figures for the EC50 in experiment [4] and in experiment [5] were < 0.005 µM and 0.025 to 0.133 µM, respectively.

B7: N4_mAb 4 (antibody, human IgG1, V domains shown)
VH: DVQLQESGPDLVKPSQSLSLTCTVTGYSITSAYNWHWIRQFPGNKLEWMGYIHYSGRTNYNPSLKSRISITRDTSKNQFFLQLNSLTTEDTATYYCARWITTATGWYLDVWGAGTTVTVSS
VL: not shown
notes: as for B1
B7: the EC50 in experiment [3] is 0.025 to 0.133 µM; in experiment [6] it was > 0.13 µM; in experiment [7] it was > 0.13 µM.

The record behind these values is patent US12723100 (CSPC MEGALITH BIOPHARMACEUTICAL, dated 2026).
